Reference: patent publication US20060029995A1, “Novel class of metacaspases” (Vlaams Interuniversitair Instituut Voor Biotechnologie VZW, priority 2003, published 2006)

What was measured:
[1] = biological target: T1, t-butyloxycarbonyl-Gly-Lys-Arg-7-amido-4-methylcoumarin
T1 chain: GKR

Z-YVAD-cmk = biological target: T2, Z-YVAD-cmk
T2 chain: YVAD

Z-DEVD-cmk = biological target: T3, Z-DEVD-cmk
T3 chain: DEVD

[2] = biological target: T4, benzyloxycarbonyl-Phe-Arg-AMC
T4 chain: FR

Z-VAD-fmk = biological target: T5, Z-VAD-fmk
T5 chain: VAD

[3] = biological target: T6, t-butyloxycarbonyl-Gly-Arg-Arg-7-amido-4-methylcoumarin
T6 chain: GRR

[4] = biological target: T7, Z-FK-2,4,6-trimethylbenzoyloxymethyl ketone
T7 chain: FK

[5] = biological target: T8, H-Ala-Phe-Lys-7-amido-4-methylcoumarin
T8 chain: AFK

[6] = biological target: T9, Soybean trypsin inhibitor, P01070
T9 chain: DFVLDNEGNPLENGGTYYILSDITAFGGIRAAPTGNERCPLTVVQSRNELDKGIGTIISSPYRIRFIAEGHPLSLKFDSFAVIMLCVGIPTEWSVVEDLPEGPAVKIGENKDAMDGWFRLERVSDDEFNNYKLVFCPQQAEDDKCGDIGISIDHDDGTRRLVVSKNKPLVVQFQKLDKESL

B1: N-terminally HIS6-tagged Atmc9 (bacterially produced) (protein)
chain: MSYYHHHHHHLESTSLYKKAGSTMDQQGMVKKRLAVLVGCNYPNTRNELHGCINDVLAMKETILSRFGFKQDDIEVLTDEPESKVKPTGANIKAALRRMVDKAQAGSGDILFFHYSGHGTRIPSVKSAHPFKQDEAIVPCDFNLITDVDFRELVNQLPKGTSFTMISDSCHSGGLIDKEKEQIGPSSVSSNISPAIETTNKTITSRALPFKAVLDHLSSLTGITTSDIGTHLLELFGRDAGLKFRLPAMDLMDLLETMTAREKHVDSGILMSGCQADETSADVGVGNGKAYGAFSNAIQRVLNENEGAMKNKQLVMMARDVLERLGFHQHPCLYCSDQNADATFLSQP
kcat/Km [1]: 1900 M⁻¹ s⁻¹ | Activity (%) of Atmc9 with Boc-GKR-AMC as substrate, reagent at 100 µM (Z-YVAD-cmk): 100% | Activity (%) of Atmc9 with Boc-GKR-AMC as substrate, reagent at 100 µM (Z-DEVD-cmk): 94% | kcat/Km [2]: 2900 M⁻¹ s⁻¹ | Activity (%) of Atmc9 with Boc-GKR-AMC as substrate, reagent at 100 µM (Z-VAD-fmk): 87% | kcat/Km [3]: 2900 M⁻¹ s⁻¹ | Activity (%) of Atmc9 with Boc-GKR-AMC as substrate, reagent at 1 µM [4]: 33% | kcat/Km [5]: 750 M⁻¹ s⁻¹ | Activity (%) of Atmc9 with Boc-GKR-AMC as substrate, reagent at 100 µg/ml [6]: 73%
